# In patent US20250197501A1 (DEVELOPMENT CENTER FOR BIOTECHNOLOGY, published 2025):
# Residue numbers refer to the chain shown, from its start. Like-named read-outs stand apart in the source and are kept apart here.
# T1: recombinant human B7-H3-mFc protein (human, UniProt Q5ZPR3 29-466)
# T1 construct: also called B7-H3 protein; not shown: mouse Fc domain
# T1 sequence: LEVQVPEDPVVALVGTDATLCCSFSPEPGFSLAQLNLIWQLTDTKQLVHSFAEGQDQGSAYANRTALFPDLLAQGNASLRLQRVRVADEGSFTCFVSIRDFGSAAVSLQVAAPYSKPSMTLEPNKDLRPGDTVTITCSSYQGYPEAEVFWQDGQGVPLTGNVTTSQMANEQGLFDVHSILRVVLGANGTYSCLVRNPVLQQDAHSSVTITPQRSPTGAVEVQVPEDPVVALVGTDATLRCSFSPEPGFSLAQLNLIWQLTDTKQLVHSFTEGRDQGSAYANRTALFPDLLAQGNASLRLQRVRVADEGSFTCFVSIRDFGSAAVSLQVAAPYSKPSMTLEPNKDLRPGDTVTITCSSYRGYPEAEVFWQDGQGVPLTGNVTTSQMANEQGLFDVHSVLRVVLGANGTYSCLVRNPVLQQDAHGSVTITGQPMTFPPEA
# T2: human B7-H3 on the surface of human cancer cells (human, UniProt Q5ZPR3 29-534)
# T2 sequence: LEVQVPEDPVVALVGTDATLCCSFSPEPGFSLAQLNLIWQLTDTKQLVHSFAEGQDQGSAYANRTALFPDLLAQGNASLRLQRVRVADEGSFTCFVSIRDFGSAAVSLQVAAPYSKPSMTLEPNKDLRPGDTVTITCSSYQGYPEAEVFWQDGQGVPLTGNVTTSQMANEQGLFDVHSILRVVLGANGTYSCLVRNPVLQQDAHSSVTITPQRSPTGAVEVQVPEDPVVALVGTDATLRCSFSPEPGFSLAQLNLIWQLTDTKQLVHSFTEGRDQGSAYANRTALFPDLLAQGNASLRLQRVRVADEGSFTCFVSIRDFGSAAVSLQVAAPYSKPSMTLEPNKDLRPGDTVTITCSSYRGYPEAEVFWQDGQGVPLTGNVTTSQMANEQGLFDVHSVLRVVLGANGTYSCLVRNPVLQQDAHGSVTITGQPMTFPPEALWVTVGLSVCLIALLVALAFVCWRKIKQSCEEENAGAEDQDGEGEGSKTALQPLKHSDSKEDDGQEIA
# T3: recombinant rat B7-H3-mFc protein (rat, UniProt Q7TPB4 29-244)
# T3 construct: also called rat B7-H3 mFc chimeric protein; rat B7-H3 Fc chimeric protein; not shown: mouse Fc domain
# T3 sequence: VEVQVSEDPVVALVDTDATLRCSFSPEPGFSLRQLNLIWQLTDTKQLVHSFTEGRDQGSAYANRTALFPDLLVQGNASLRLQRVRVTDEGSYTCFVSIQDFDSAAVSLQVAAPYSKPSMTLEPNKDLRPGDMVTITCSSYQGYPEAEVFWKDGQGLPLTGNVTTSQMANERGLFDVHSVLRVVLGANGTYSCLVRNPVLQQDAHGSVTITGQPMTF
# T4: recombinant mouse B7-H3-mFc protein (mouse, UniProt Q8VE98 29-244)
# T4 construct: not shown: mouse Fc domain
# T4 sequence: T3 sequence with R33A, A62S, D131N, L156V, M214L
# T5: B7-H2
# T5 chain: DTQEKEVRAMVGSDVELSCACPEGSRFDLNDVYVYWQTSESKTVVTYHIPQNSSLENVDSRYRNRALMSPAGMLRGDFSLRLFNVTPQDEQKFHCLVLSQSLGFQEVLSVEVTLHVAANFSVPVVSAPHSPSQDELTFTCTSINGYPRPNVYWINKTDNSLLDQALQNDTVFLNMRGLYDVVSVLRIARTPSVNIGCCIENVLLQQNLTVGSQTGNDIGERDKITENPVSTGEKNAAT
# T6: B7-H7
# T6 chain: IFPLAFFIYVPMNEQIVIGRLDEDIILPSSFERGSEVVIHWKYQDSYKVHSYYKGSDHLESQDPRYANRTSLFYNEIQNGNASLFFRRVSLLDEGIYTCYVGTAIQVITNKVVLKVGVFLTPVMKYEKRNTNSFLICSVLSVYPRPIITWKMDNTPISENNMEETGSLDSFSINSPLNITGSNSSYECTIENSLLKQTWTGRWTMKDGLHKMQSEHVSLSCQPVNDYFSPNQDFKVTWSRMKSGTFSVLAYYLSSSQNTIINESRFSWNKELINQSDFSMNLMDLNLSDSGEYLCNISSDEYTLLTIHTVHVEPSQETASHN
# T7: B7-H4
# T7 construct: Member of the group m9
# T7 chain: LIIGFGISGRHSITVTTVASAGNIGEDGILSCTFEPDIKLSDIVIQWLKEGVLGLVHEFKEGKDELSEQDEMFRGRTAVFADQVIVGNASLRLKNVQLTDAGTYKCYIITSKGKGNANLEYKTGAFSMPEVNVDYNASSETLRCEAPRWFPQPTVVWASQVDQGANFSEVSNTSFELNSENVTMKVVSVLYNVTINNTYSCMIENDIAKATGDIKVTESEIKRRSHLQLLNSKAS
# T8: B7-H6
# T8 chain: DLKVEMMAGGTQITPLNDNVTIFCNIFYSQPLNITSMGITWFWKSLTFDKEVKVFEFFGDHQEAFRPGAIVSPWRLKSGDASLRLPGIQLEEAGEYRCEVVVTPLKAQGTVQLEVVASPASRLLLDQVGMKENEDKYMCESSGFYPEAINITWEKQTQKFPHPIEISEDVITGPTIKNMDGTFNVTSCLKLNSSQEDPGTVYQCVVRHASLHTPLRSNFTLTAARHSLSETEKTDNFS
# T9: recombinant cynomolgus monkey B7-H3 protein (cynomolgus monkey, UniProt Q7TPB4 26-248 (rat entry))
# T9 chain: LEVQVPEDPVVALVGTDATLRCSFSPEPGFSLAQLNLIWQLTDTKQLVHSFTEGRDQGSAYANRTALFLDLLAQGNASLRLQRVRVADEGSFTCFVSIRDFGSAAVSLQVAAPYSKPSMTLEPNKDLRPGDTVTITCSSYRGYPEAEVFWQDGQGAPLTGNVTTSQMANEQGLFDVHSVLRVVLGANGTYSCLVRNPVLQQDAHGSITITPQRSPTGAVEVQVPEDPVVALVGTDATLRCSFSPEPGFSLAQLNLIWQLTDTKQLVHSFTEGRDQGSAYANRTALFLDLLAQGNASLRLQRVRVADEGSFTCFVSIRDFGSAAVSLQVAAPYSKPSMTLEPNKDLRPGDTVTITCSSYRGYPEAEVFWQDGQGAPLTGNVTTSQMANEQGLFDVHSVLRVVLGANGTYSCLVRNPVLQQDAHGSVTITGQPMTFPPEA
# B1: 91H06-MMAE (other)
# VH: EVQLVESGGGLVQPGGSLRLSCAASGFTFSDYGMGWVRQAPGKGLEWVSSISWDSSSKEYADSVKGRFTISRDNSKNTLYLQMNSLRAEDTAVYYCARAWIAIIGGGAHFDYWGQGTLVTVSS
# VL: DIQMTQSPSSLSASVGDRVTITCRASQSVSSHLAWYQQKPGKAPKLLIYLTSSLQSGVPSRFSGSGSGTDFTLTISSLQPEDFATYYCMQSKSLPFTFGQGTKVEIKR
# modifications: MMAE linked through a PEG linker and a protease-sensitive valine-citrulline or glutamate-valine-citrulline linker to the azide-modified antibody (mAb-4 Azide, tri-mannosyl ADC platform); DAR between 3.5 and 3.9; attachment residue not stated
# notes: also called the present ADC
# B2: 91H06-MMAF (other)
# VH: B1 VH
# VL: B1 VL
# modifications: MMAF linked through a PEG linker and a protease-sensitive valine-citrulline or glutamate-valine-citrulline linker to the azide-modified antibody (mAb-4 Azide, tri-mannosyl ADC platform); DAR between 3.5 and 3.9; attachment residue not stated
# B3: mAb 91H06 (antibody, V domains shown)
# VH: B1 VH
# VL: B1 VL
# notes: Fully human, detected with anti-human IgG; also called antibody 91H06; anti-B7-H3 monoclonal antibody 91H06
# B4: Ifinatamab (antibody, V domains shown)
# VH: QVQLVQSGAEVKKPGSSVKVSCKASGYTFTNYVMHWVRQAPGQGLEWMGYINPYNDDVKYNEKFKGRVTITADESTSTAYMELSSLRSEDTAVYYCARWGYYGSPLYYFDYWGQGTLVTVSS
# VL: EIVLTQSPATLSLSPGERATLSCRASSRLIYMHWYQQKPGQAPRPLIYATSNLASGIPARFSGSGSGTDFTLTISSLEPEDFAVYYCQQWNSNPPTFGQGTKVEIK
# Assays:
# [1] = target: T1, recombinant human B7-H3-mFc protein; experiment: SPR; MMAE conjugate, not parental mAb
# Method: The binding kinetics of the present antibodies against human B7-H3 were determined by Biacore™ assay. Carboxymethylated dextran biosensor chips (CM5) were activated according to the supplier's instructions. Anti-human IgG (Fc) was diluted with immobilization buffer before injection at a flow rate of 10 μL/minute to achieve approximately 10,000 response units (RU) of coupled protein followed by the injection of 1 M ethanolamine to block unreacted groups. Human anti-B7-H3 antibodies were captured on anti-human IgG chip. For kinetics measurements, two-fold serial dilutions of human B7-H3-mFc protein (from 40 nM to 0.3125 nM) were injected in HBS-EP⁺ Biacore™ running buffer provided by the manufacturer at a flow rate of 30 μL/min.
# [2] = target: T2, human B7-H3 on the surface of human …; experiment: cell-based or functional assay
# [3] = target: T2, human B7-H3 on the surface of human …; experiment: cell-based or functional assay; remark: listed apart in the source
# [4] = target: T3, recombinant rat B7-H3-mFc protein; experiment: SPR (Biacore), antibody captured on anti-human IgG chip, B7-H3 protein injected
# [5] = target: T1, recombinant human B7-H3-mFc protein; experiment: as above
# [6] = target: T4, recombinant mouse B7-H3-mFc protein; experiment: as above
# [7] = target: T1, recombinant human B7-H3-mFc protein; experiment: ELISA, plate coated with human B7-H3-mFc
# Method: (§1) The binding affinity of full-length antibodies to human, monkey, mouse and rat B7-H3 were evaluated by ELISA. In brief, 96-well plate was coated with B7-H3 proteins (i.e., human B7-H3-mFc protein, cynomolgus monkey B7-H3 protein or rat B7-H3 Fc chimeric protein) in coating buffer and incubated overnight at 4° C. After washing with PBS for 3 times, the 96-well plate was inverted and tapped on clean absorbent papers to remove excess liquid. The blocking buffer (PBS containing 1% bovine serum albumin (BSA) was added to the wells, followed by incubating the plate at 37° C. for 1 hour with gentle continual shaking. After washing with PBS for 3 times, serial dilutions of anti-B7-H3 antibody (in PBS containing 1% BSA) were added into the wells. The plate was incubated at 37° C. for 1 hour with gentle continual shaking. After washing with PBS for 3 times, the secondary antibody (peroxidase-conjugated AffiniPure™ F(ab′)₂ fragment goat anti-human IgG (H+L)) was added into the wells and then incubated at 37° C. for 1 hour with gentle continual shaking. The plate was washed with PBS for 3 times, and the TMB substrate was added into each well and incubated at room temperature for 5 minutes, avoiding from light. 1 N HCl stop solution was added into each well and the absorbance was measured at 450/650 nm. The binding affinity value (EC50) of antibodies was determined by software.
# [8] = target: T4, recombinant mouse B7-H3-mFc protein; experiment: ELISA, plate coated with mouse B7-H3 mFc
# Method: as §1
# [9] = target: T3, recombinant rat B7-H3-mFc protein; experiment: ELISA, plate coated with rat B7-H3 mFc
# Method: as §1
# B7-H1 = experiment: ELISA on the named B7 family protein (Example 1.1), A450 readout; antibody concentration not given
# B7-H2 = target: T5, B7-H2; experiment: as above
# B7-H7 = target: T6, B7-H7; experiment: as above
# B7-H4 = target: T7, B7-H4; experiment: as above
# B7-H6 = target: T8, B7-H6; experiment: as above
# [10] = target: T9, recombinant cynomolgus monkey B7-H3 …; experiment: ELISA, plate coated with cynomolgus monkey B7-H3
binder,measurement,setting,value
B1,Kd,[1],0.24 nM
same,koff,[1],0.000155 s⁻¹
same,kon,[1],643000 M⁻¹ s⁻¹
same,"Cytotoxicity activity (IC50, nM), CAL 27 cells",[2],< 50 nM
same,"Cytotoxicity activity (IC50, nM), Detroit 562 cells",[2],< 50 nM
same,"Cytotoxicity activity (IC50, nM), FaDu cells",[2],< 50 nM
same,"Cytotoxicity activity (IC50, nM), LNCaP cells",[2],< 50 nM
B2,"Cytotoxicity activity (IC50, nM), CAL 27 cells",[3],< 10 nM
same,"Cytotoxicity activity (IC50, nM), Detroit 562 cells",[3],< 10 nM
same,"Cytotoxicity activity (IC50, nM), FaDu cells",[3],< 10 nM
same,"Cytotoxicity activity (IC50, nM), LNCaP cells",[3],< 10 nM
B3,kon,[4],178000 M⁻¹ s⁻¹
same,Kd,[5],0.227 nM
same,Kd,[6],2.03 nM
same,EC50,[7],0.0186 nM
same,EC50,[8],0.0767 nM
same,EC50,[9],0.0601 nM
same,binding result,B7-H1,no binding
same,binding result,B7-H2,no binding
same,binding result,B7-H7,no binding
same,binding result,B7-H4,no binding
same,binding result,B7-H6,no binding
B4,EC50,[7],0.0356 nM
same,EC50,[10],0.127 nM
